Experimental data as given in doi:10.1101/2025.04.07.647567 (bioRxiv, 2025).

T1: AXL in mouse lung tissue (mouse (endogenous in mouse lung tissue), UniProt Q00993 19-888)
T1 sequence: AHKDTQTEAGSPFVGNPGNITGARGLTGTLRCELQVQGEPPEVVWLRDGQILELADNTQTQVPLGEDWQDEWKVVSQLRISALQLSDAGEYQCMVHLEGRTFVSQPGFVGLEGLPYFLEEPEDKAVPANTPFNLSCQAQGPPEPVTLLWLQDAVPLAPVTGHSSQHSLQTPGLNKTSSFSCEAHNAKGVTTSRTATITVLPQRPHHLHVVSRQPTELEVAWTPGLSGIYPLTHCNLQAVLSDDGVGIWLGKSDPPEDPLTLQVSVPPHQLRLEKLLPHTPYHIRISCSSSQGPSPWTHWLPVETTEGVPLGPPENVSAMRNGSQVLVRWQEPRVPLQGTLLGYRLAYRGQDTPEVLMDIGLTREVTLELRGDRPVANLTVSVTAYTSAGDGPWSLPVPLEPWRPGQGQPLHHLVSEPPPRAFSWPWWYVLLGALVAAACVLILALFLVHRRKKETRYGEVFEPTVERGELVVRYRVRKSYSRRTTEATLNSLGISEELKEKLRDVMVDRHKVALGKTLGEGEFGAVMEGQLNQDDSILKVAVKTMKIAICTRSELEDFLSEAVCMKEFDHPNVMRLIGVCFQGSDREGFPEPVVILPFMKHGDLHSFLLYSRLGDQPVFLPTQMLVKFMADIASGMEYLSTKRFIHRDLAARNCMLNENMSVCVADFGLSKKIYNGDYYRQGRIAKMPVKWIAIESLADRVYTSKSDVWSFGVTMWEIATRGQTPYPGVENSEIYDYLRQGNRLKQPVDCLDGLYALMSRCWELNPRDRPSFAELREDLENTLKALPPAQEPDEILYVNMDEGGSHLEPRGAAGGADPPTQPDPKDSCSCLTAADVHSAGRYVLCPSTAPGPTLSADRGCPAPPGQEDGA

B1: GAS6 in mouse lung tissue (ligand)
chain: VLLRAREAAQFLRPRQRRAYQVFEEAKQGHLERECVEEVCSKEEAREVFENDPETEYFYPRYQECMRKYGRPEEKNPDFAKCVQNLPDQCTPNPCDKKGTHICQDLMGNFFCVCTDGWGGRLCDKDVNECVQKNGGCSQVCHNKPGSFQCACHSGFSLASDGQTCQDIDECTDSDTCGDARCKNLPGSYSCLCDEGYTYSSKEKTCQDVDECQQDRCEQTCVNSPGSYTCHCDGRGGLKLSPDMDTCEDILPCVPFSMAKSVKSLYLGRMFSGTPVIRLRFKRLQPTRLLAEFDFRTFDPEGVLFFAGGRSDSTWIVLGLRAGRLELQLRYNGVGRITSSGPTINHGMWQTISVEELERNLVIKVNKDAVMKIAVAGELFQLERGLYHLNLTVGGIPFKESELVQPINPRLDGCMRSWNWLNGEDSAIQETVKANTKMQCFSVTERGSFFPGNGFATYRLNYTRTSLDVGTETTWEVKVVARIRPATDTGVLLALVGDDDVVPISVALVDYHSTKKLKKQLVVLAVEDVALALMEIKVCDSQEHTVTVSLREGEATLEVDGTKGQSEVSTAQLQERLDTLKTHLQGSVHTYVGGLPEVSVISAPVTAFYRGCMTLEVNGKILDLDTASYKHSDITSHSCPPVEHATP

Experiments:
[1] = biological target: recombinant human AXL, biotinylated (human) (UniProt P30530); assay: SPR
Chain of recombinant human AXL, biotinylated (human) (P30530 26-894): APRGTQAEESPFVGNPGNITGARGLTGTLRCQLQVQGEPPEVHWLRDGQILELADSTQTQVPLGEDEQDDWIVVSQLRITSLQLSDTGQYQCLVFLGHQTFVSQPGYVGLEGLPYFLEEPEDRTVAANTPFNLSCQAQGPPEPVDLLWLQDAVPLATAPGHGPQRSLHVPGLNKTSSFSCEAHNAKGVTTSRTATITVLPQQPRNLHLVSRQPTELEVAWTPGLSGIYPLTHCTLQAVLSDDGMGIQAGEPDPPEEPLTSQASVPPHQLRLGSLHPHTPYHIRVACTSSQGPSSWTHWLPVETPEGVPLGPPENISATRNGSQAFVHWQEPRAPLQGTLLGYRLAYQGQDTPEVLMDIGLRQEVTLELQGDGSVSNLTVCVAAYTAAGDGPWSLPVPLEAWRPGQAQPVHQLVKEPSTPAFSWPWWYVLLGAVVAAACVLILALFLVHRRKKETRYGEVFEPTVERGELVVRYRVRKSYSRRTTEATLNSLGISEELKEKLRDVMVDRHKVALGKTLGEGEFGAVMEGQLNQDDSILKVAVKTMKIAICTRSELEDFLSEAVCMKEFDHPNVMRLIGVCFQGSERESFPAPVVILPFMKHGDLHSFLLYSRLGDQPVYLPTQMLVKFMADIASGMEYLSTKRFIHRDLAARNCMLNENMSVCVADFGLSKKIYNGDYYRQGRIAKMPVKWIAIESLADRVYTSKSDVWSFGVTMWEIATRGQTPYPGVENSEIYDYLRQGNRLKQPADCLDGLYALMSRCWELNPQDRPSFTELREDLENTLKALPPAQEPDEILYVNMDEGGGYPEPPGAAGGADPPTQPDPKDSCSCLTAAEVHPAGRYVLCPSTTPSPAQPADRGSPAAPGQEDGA

[2] = biological target: T1, AXL in mouse lung tissue; assay: FRET or BRET

Molecule	Kd [1]	FRET efficiency (%Ef) of one coincident region [2]
recombinant human GAS6 (from UniProt Q14393 31-678) (ligand)	0.00011 µM	–
recombinant human PROS1 (from UniProt P07225 42-676) (ligand)	0.0522 µM	–
B1	–	6.96%
